# Experimental data as given in patent US20190234935A1.
# Target: mouse GFRAL (endogenous, wild type mice against Gfral-/- mice) (mouse) (UniProt Q6SJE0)
# Experiment: cell-based or functional assay
# mouse GFRAL (endogenous, wild type mice against Gfral-/- mice) (mouse), sequence (Q6SJE0 20-393): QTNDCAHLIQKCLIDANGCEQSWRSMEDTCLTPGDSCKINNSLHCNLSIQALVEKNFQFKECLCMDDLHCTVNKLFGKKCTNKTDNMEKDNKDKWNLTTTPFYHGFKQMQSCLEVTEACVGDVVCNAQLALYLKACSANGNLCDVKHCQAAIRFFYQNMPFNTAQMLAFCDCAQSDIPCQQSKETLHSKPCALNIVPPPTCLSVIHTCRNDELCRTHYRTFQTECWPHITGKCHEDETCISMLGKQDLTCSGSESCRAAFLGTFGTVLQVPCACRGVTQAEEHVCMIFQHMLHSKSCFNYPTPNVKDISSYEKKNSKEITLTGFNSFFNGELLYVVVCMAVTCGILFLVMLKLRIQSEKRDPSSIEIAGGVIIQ
substance,measurement,value
recombinant human GDF15 (generated by Janssen BioTherapeutics) (from UniProt Q99988 197-308) (ligand),decrease in 12-hour food intake after a single subcutaneous administration of 16 nmol/kg,> 40%
